# Data published in patent publication CN112062844A (SHANDONG BOAN BIOTECHNOLOGY CO LTD, dated 2020).
# What was measured:
# [1] = target: T1, ANGPTL3蛋白(10770-H08B，义翘神州) (UniProt Q9Y5C1 17-460); experiment: cell-based or functional assay
# T1 sequence (looked up): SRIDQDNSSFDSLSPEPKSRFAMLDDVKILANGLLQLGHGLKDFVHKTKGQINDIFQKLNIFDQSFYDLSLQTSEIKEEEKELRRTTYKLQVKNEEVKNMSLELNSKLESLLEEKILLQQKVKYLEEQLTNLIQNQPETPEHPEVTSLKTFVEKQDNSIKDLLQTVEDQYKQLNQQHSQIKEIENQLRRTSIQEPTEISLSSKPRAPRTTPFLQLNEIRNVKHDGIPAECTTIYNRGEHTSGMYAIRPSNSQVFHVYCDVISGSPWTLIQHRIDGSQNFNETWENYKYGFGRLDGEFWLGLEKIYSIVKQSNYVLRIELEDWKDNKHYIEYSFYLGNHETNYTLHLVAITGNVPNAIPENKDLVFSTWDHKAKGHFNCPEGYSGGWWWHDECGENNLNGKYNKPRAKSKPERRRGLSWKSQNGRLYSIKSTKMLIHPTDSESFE
# [2] = target: T1, ANGPTL3蛋白(10770-H08B，义翘神州); experiment: ELISA, ANGPTL3 coated at graded concentrations (0.2-0 μg/mL), antibody 1 μg/mL, OD450
# [3] = target: T1, ANGPTL3蛋白(10770-H08B，义翘神州); experiment: SPR, BIAcore 8K, antibody captured by anti-human IgG Fc on CM5, ANGPTL3 as analyte, 1:1 model
binder,measurement,setting,value
"AP-REGN-IgG4 (antibody, V domains shown, IgG4 by its name; also called Evinacumab; evinacumab) VH: EVQLVESGGGVIQPGGSLRLSCAASGFTFDDYAMNWVRQGPGKGLEWVSAISGDGGSTYYADSVKGRFTISRDNSKNSLYLQMNSLRAEDTAFFYCAKDLRNTIFGVVIPDAFDIWGQGTMVTVSS VL: not shown","酶活检测EC50 (LPL, DGGR底物, 荧光值)",[1],95.1 µg/mL
same,EC50,[2],0.162 µg/mL
same,Kd,[3],452 pM
same,koff,[3],0.000275 s⁻¹
same,kon,[3],609000 M⁻¹ s⁻¹
